Experiments:
[1] = molecular target: T1, D1 domain of human IL-2Rγ extracellular domain expressed with a C-terminal myc-myc-hexahistidine tag (human); test: SPR, mAb captured on anti-hFc, 37 C
T1 construct: also called human IL2Rγ domain 1
T1 chain: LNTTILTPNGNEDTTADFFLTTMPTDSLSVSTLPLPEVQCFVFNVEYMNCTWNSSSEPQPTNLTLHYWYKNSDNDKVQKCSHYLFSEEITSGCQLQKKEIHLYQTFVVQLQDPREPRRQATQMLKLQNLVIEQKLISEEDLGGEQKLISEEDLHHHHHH
Protocol: (§1) Equilibrium dissociation constants (KD values) for IL-2Rγ binding to purified anti-IL2Rγ monoclonal antibodies were determined using a Biacore 4000 instrument equipped with a real-time surface plasmon resonance biosensor. All binding studies were performed in 10 mM HEPES, 150 mM NaCl, 3 mM EDTA, and 0.05% v/v Surfactant Tween-20, pH 7.4 (HBS-ET) running buffer at 25° C. and 37° C. The Biacore sensor surface was first derivatized by amine coupling with a monoclonal mouse anti-human Fc antibody (GE, # BR-1008-39) to capture anti-IL2Rγ monoclonal antibodies.
(§2) The dissociation of monoclonal antibody bound IL2Rγ reagents were monitored for 8-10 minutes in HBS-ET running buffer. Kinetic association (kₐ) and dissociation (kd) rate constants were determined by fitting the real-time sensorgrams to a 1:1 binding model using Scrubber 2.0c curve fitting software. Binding dissociation equilibrium constants (KD) and dissociative half-lives (t_{1/2}) were calculated from the kinetic rate constants as: […]

[2] = molecular target: T1, D1 domain of human IL-2Rγ extracellular …; test: SPR, mAb captured on anti-hFc, 25 C
Protocol: as §1, §2

[3] = molecular target: T2, D2 domain of human IL2Rγ extracellular domain expressed with a C-terminal myc-myc-hexahistidine tag (human); test: SPR, mAb captured on anti-hFc, 25 C
T2 construct: also called human IL2Rγ domain 2
T2 chain: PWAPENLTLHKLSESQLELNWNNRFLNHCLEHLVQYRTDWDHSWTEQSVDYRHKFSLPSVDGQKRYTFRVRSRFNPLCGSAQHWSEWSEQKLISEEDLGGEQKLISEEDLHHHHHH
Protocol: as §1

[4] = molecular target: T2, D2 domain of human IL2Rγ extracellular …; test: SPR, mAb captured on anti-hFc, 37 C
Protocol: as §1

[5] = molecular target: T3, human IL-2Rγ endogenously expressed on NK-92 and Jurkat cells (human, UniProt P31785 23-369); test: flow cytometry, 10 ug/ml antibody, Jurkat cells (endogenous human IL-2Rg)
T3 construct: whole, on cells; on cells it stands with the other receptor subunits of the cell line; also called IL-2Rg; CD132
T3 sequence (looked up): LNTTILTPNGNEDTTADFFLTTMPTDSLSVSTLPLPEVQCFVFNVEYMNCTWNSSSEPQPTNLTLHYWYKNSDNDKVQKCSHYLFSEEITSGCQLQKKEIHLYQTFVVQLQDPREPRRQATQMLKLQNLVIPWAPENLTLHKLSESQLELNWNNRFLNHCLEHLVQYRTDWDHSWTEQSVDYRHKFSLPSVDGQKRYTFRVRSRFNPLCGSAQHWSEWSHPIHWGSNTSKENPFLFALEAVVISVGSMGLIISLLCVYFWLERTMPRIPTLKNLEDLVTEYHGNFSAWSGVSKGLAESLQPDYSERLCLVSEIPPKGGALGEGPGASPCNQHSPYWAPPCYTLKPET
Protocol: For flow cytometry analyses, the cells were pre-incubated with mouse IgG at 100 μg/ml for 15 minutes at room temperature (RT) to block the binding of the antibodies to Fc receptors. […] Cells were washed, fixed using BD CytoFix™ (BD biosciences, #554655) and analyzed on an IQue® (Intellicyt®) Flow Cytometer or Accuri Flow cytometer (BD). […] The results were analyzed using ForeCyt® (IntelliCyt®) software to determine the geometric means of fluorescence (MFI) for viable cells. Binding ratios were calculated by normalizing the MFI of the test sample by the MFI of the unstained sample.

[6] = molecular target: T3, human IL-2Rγ endogenously expressed on …; test: flow cytometry, 10 ug/ml antibody, NK-92 cells (endogenous human IL-2Rg)
[7] = molecular target: T4, mouse IL-2Rγ endogenously expressed on MC/9 cells (mouse, UniProt P34902 23-369); test: flow cytometry, 10 ug/ml antibody, MC/9 cells (endogenous mouse IL-2Rg)
T4 construct: whole, on cells
T4 sequence (looked up): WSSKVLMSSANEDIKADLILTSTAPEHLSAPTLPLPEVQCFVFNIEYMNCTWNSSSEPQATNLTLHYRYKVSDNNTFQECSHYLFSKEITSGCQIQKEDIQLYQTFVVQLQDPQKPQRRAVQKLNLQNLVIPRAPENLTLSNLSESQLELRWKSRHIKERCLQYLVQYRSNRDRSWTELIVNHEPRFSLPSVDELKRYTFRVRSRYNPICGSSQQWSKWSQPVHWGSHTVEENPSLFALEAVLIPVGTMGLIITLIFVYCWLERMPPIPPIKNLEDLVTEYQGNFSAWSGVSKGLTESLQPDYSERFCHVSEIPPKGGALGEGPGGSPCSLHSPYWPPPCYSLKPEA

Binder	100 nM Ag Bound [1]	100 nM Ag Bound [2]	100 nM Ag Bound [3]	binding result [3]	100 nM Ag Bound [4]	Binding Ratio (Sample over unstained MFIs) [5]	Raw MFI [5]	Binding Ratio (Sample over unstained MFIs) [6]	Raw MFI [6]	Binding Ratio (Sample over unstained MFIs) [7]	Raw MFI [7]	binding result [1]	binding result [2]
H4H12924P2 (antibody, human IgG4 S228P, kappa, V domains shown, human IgG4) VH: EVQLVESGGGLVQPGRSLRLSCAASGFTLEDYAMHWVRQAPGKGLEWVSGISWNRGSTGYADSVKGRFTISRDNAKNSLYLQMTSLRAEDTALYYCAKGFYSMDVWGQGTTVTVSS VL: not shown	-1 RU	1 RU	1 RU	no binding (tested: 100 nM)	0 RU	–	–	–	–	–	–	–	–
H4H12924P2 (antibody, human IgG4 S228P, kappa, V domains shown, fully human anti-IL2Rg antibody, human IgG4) VH: EVQLVESGGGLVQPGRSLRLSCAASGFTLEDYAMHWVRQAPGKGLEWVSGISWNRGSTGYADSVKGRFTISRDNAKNSLYLQMTSLRAEDTALYYCAKGFYSMDVWGQGTTVTVSS VL: not shown	–	–	–	–	–	1	104 MFI	2	231 MFI	1	192 MFI	–	–
H4H12926P2 (antibody, human IgG4 S228P, kappa, V domains shown, fully human anti-IL2Rg antibody, human IgG4) VH: QVQLQQSGPGLVKPSQTLSLTCAISGDSVSSNIAAWNWIRLSPSRGLEWLGRTFFRSTWFYDYSLSVKGRITINPDTSKNQFSLHLNSVTPEDAAVYYCARTGRRWSLDYWGQGTLVTVSS VL: not shown	–	–	–	–	–	2	179 MFI	12	1850 MFI	1	175 MFI	–	–
H4H12858P (antibody, human IgG4 S228P, kappa, V domains shown, human IgG4; also called REGN9433) VH: EVQLVESGGDLVQPGGSLRLSCTASGFIFRNYAMNWVRQAPGKGLEWLSGILGSNDNTYYVDSVKGRFTISRDNSRNTLYLQMNSLRAEDSAVYYCAKGDAGGFDYWGQGTLVTVSS VL: DVVMTQSPLSLPVILGQPASISCRSSQSLVSSDGNTYLNWFQQRPGQSPRRLIYKVSNRDSGVPDRFSGSGSGTDFTLKISRVEAEDVGAYYCMQGSYWPPTFGQGTKLEIKR	1 RU	1 RU	0 RU	–	-1 RU	–	–	–	–	–	–	no binding (tested: 100 nM)	–
H4H12922P2 (antibody, human IgG4 S228P, kappa, V domains shown, fully human anti-IL2Rg antibody, human IgG4; also called REGN7256) VH: QVQLVESGGGVVKPGGSLRLSCAASGFTFSNSGIHWVRQAPGKGLEWVALISYAGSNKYYADSVKGRFTISRDNSKNTLSLQMNSLRAEDTAVYYCAKEVWTGTYDSFDMWGRGTMVTVSS VL: not shown	–	–	–	–	–	18	1570 MFI	84	12500 MFI	1	187 MFI	–	–
H4H12913P2 (antibody, human IgG4 S228P, kappa, V domains shown, fully human anti-IL2Rg antibody, human IgG4) VH: EVQLVESGGGVVRPGGSLRLSCAASGFTFDDYGMSWVRQAPGKGLEWISSINRNGGSADYADSVKGRFTISRDNAKNSLFLQMSSLRAEDTALYHCASGEFRFDYWGQGTLVTVSS VL: not shown	–	–	–	–	–	5	472 MFI	33	4910 MFI	1	178 MFI	–	–
H4H12927P2 (antibody, human IgG4 S228P, kappa, V domains shown, fully human anti-IL2Rg antibody, human IgG4) VH: EVQLVESGGGVVRPGGSLRLSCATSGFTFDDYGMSWVRQVPGKGLEWVSSVNRNGGTTDYADSVKGRFTISRDNAKRSLFLQMNSLRAEDTALYHCATGELFFDYWGQGTLVTVSS VL: not shown	–	–	–	–	–	4	315 MFI	23	3490 MFI	1	191 MFI	–	–
H4H12899P (antibody, human IgG4 S228P, kappa, V domains shown, human IgG4) VH: QVQLVESGGDLVKPGGSLRLSCATSGFTFSDFYMTWIRQAPGKGLEWISYISNSGSIVKYADSVKGRFTISRDNAKNSLYLQMNSLRAEDTAIYYCARFYGDRWGQGTLVTVSS VL: DIQLTQSPSFLSASVGDRVTITCWASQGISTFLAWYQQKPGKAPKLLIYAASTLQSGVPSRFSGSGSGTDFTLTISSLQPEDFATYHCQQLNNYPWTFGQGTKVEIKR	1 RU	0 RU	-1 RU	–	0 RU	–	–	–	–	–	–	–	no binding (tested: 100 nM)
H4H12900P (antibody, human IgG4 S228P, kappa, V domains shown, human IgG4) VH: QVQLVESGGGLVKPGGSLRLSCEASGFTFNDFYMTWIRQAPGKGLEWIAYISKSGDKMRYADSVKGRFSTSRDNAKNSLSLQMNSLRAEDTAVYYCARFYGDIWGQGTLVTVSS VL: DIQLTQSPSFLSASVGDRVTITCWASQDISSFLVWYQQKPGKAPNLLIYAASALQSGVPSRFSGSGSGTEFTLTISSLQPEDFASYYCEQLNNYPWTFGQGTKVEIKR	2 RU	0 RU	-1 RU	–	1 RU	–	–	–	–	–	–	–	no binding (tested: 100 nM)
H4H12908P (antibody, human IgG4 S228P, kappa, V domains shown, human IgG4) VH: EVQLVESGGRLVQPGGSLRLSCEASGFTFSNYGMTWVRQAPGKGLEWVSVISGSDNRKYYAESVKGRFTISRDNSKNTLYLQMNSLRAEDTAVYYCAKLGYSRSSKDFYYGMDVWGQGTTVTVSS VL: not shown	0 RU	1 RU	-1 RU	–	-1 RU	–	–	–	–	–	–	–	no binding (tested: 100 nM)
H4H12908P (antibody, human IgG4 S228P, kappa, V domains shown, fully human anti-IL2Rg antibody, human IgG4) VH: EVQLVESGGRLVQPGGSLRLSCEASGFTFSNYGMTWVRQAPGKGLEWVSVISGSDNRKYYAESVKGRFTISRDNSKNTLYLQMNSLRAEDTAVYYCAKLGYSRSSKDFYYGMDVWGQGTTVTVSS VL: not shown	–	–	–	–	–	1	86 MFI	17	2540 MFI	1	154 MFI	–	–

Reference: patent US20200247894A1 (Regeneron, published 2020)
